Molecular target: the molecule itself
Test: cross-linking

B1: Hin–H107Y/S94C (enzyme)
chain: MATIGYIRVSTIDQNIDLQRNALTSANCDRIFEDRISGKIANRPGLKRALKYVNKGDTLVVWKLDRLGRSVKNLVALISELHERGAHFHSLTDCIDTSSAMGRFFFYVMSALAEMERELIVERTLAGLAAARAQGRLGGRPRAINKHEQEQISRLLEKGHPRQQLAIIFGIGVSTLYRYFPASRIKKRMN
Does B1 bind?
Result: binds
